Results from publication PMC13423832.

B1: AP-Nogo66-His, wild type (alkaline phosphatase fusion of the NOGO66 domain of reticulon-4) [human] / RTNR-FLAG-His (Nogo66 receptor) on HEK293T cells [not stated] (parent)
chain 1: RIYKGVIQAIQKSDEGHPFRAYLESEVAISEELVQKYSNSALGHVNCTIKELRRLFLVDDLVDSLK
chain 2: CPGACVCYNEPKVTTSCPQQGLQAVPVGIPAASQRIFLHGNRISHVPAASFRACRNLTILWLHSNVLARIDAAAFTGLALLEQLDLSDNAQLRSVDPATFHGLGRLHTLHLDRCGLQELGPGLFRGLAALQYLYLQDNALQALPDDTFRDLGNLTHLFLHGNRISSVPERAFRGLHSLDRLLLHQNRVAHVHPHAFRDLGRLMTLYLFANNLSALPTEALAPLRALQYLRLNDNPWVCDCRARPLWAWLQKFRGSSSEVPCSLPQRLAGRDLKRLAANDLQGCAVATGPYHPIWTGRATDEEPLGLPKCCQPDAADKASVLEPGRPASAGNALKGRVPPGDSPPGNGSGPRHINDSPFGTLPGSAEPPLTAVRPEGSEPPGFPTSGPRRRPGCSRKNRTRSHCRLGQAGSGGGGTGDSEGS

Variants of: B1
Test: AP (alkaline phosphatase fusion) receptor binding assay on HEK293T cells overexpressing RTNR
Details: with RTNR-FLAG-His (Nogo66 receptor) on HEK293T cells; RTNR OE HEK293T cells; n = 3 biological replicates, mean ± s.d.; parent: 0.00087; read off a plot

response (min^-1 (absorbance/time))	Variant
0.0015	chain 1 C47W
